# Measured values from paper PMC12502779.
# Biological target: T1, 6xHis-OxyR (Salmonella enterica serovar Typhi ISP1820) (UniProt Q8XF66)
# T1 sequence: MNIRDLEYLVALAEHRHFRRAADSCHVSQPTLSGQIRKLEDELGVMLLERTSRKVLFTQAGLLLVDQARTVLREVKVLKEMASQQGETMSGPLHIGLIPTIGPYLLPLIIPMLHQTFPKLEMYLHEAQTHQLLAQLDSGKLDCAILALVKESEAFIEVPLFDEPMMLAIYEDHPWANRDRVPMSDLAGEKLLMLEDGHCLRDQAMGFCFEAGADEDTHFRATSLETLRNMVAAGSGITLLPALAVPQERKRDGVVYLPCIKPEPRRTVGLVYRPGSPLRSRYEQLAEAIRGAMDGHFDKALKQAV
# Test: EMSA
# Settings: EMSA with 10 nM probe, 5% acrylamide gel, RedSafe stain; buffer, salt, pH and temperature not given (as previously described, ref 27)
sequence,measurement,value
GAAATCGGGCGTGGCATTCTGATTACTCAACAGTAATTCACGAACCCTTTTCTCGATCTCTTTCGCTGTCGCCGGGTTCTCTTTCAGCCAGGTAGTCGCGTTCGCTTTACCCTGGCCAATCTTCT (double strand) [recA],binding,no binding
